The source of these data is patent US20060242739A1, “Plant nucleotide-sugar pyrophosphatase/phosphodiesterase (nppase), method of obtaining same and use of same in the production of assay devices and in the production of transgenic plants” (Universidad Publica De Navarra, priority 2002, published 2006).

The conditions of data set [1]: slightly basic pH.
The target of data set [2] is T1, NPPase from barley leaves (Hordeum vulgare, UniProt Q687E1).
T1 sequence (Q687E1 19-368): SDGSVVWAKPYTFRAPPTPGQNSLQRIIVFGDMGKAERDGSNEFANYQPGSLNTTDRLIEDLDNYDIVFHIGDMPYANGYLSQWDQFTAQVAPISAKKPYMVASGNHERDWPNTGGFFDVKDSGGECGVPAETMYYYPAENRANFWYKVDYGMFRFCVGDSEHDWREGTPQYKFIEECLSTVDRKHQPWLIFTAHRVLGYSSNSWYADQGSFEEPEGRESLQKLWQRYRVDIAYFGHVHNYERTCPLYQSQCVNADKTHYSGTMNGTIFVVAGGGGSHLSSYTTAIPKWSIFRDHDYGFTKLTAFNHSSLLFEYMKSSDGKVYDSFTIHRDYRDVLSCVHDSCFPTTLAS
In words: Enzymatic test of soluble NPPase from barley leaves: kinetic parameters, substrate specificity, effectors. The settings on record: qualitative.

B1: NPPase: plant nucleotide pyrophosphatase/phosphodiesterase, soluble 70-kDa isoform purified from barley leaves (protein)
chain: MVSRKRGGGGGVAMAVAMLLAAASASRPSSSLEGFQPLSKIAVHKATVDLHGSAFVSATPALLGDQGEDTEWVTVKYGWANPSADDWIAVFSPADFISGSCPNPSRYPDEPLLCTAPIKYQFANYSANYVYWGKGSIRFQLINQRYDFSFALFTGGLENPKLVAVSEAISFKNPKAPVYPRLAQGKSYDEMTVTWTSGYDISEAYPFVEWGMVVAGAAAPTRTAAGTLTFNRGSMCGDPDRTVGWRDPGFIHTAFLRDLWPNKEYYYKIGHELSDGSIVWGKQYTFRAPPFPGQNSLQRIIVFGDMGKAERDGSNEFANYQPGSLNTTDRLVEDLDNYDIVFHIGDLPYANGYISQWDQFTAQVAPITAKKPYMIASGNHERDWPNTGGFFDVKDSGGECGVPAETMYYYPAENRANFWYKVDYGMFRFCIADSEHDWREGTDQYKFIEQCLSTVDRKHQPWLIFAAHRVLGYSSNWWYADQQSFEEPEGRESLQRLWQRHRVDVAFFGHVHNYERTCPMYQSQCVSGERRRYSGTMNGTIFVVAGGGGSHLSDYTSAIPKWSVFRDRDFGFVKLTAFNHSSLLFEYKKSSDGKVYDSFTVERDYRDVLSCVHDSCLPTTLAS
B1: in data set [1], the pH sensitivity result was “sensitive”.

B2: Proteinase K: protease (Boehringer) (protein, UniProt P06873 106-384, looked up)
Proteinase K: AAQTNAPWGLARISSTSPGTSTYYYDESAGQGSCVYVIDTGIEASHPEFEGRAQMVKTYYYSSRDGNGHGTHCAGTVGSRTYGVAKKTQLFGVKVLDDNGSGQYSTIIAGMDFVASDKNNRNCPKGVVASLSLGGGYSSSVNSAAARLQSSGVMVAVAAGNNNADARNYSPASEPSVCTVGASDRYDRRSSFSNYGSVLDIFGPGTSILSTWIGGSTRSISGTSMATPHVAGLAAYLMTLGKTTAASACRYIADTANKGDLSNIPFGTVNLLAYNNYQA
As for B2, the “resistance of NPPase to ionic detergents and proteases” value in data set [2] is recorded as “resistant”.
